Where only a bound is given, the exact number is not on record here.

The values that follow come from patent publication US20110039779A1, “IGF-1R BINDING PROTEINS AND ANTAGONISTS” (priority 2007, published 2011).

For assay [1], the target named is IGF-1R on MCF-7 cells (MCF-7S8, MCF7) (human), P08069. Description: cell-based or functional assay.
The target of assay [2] is IGF-1R on SW480 cells, P08069. The assay can be described thus: cell-based or functional assay.
Sequence of IGF-1R on SW480 cells, P08069 (P08069 31-1367 limits assumed): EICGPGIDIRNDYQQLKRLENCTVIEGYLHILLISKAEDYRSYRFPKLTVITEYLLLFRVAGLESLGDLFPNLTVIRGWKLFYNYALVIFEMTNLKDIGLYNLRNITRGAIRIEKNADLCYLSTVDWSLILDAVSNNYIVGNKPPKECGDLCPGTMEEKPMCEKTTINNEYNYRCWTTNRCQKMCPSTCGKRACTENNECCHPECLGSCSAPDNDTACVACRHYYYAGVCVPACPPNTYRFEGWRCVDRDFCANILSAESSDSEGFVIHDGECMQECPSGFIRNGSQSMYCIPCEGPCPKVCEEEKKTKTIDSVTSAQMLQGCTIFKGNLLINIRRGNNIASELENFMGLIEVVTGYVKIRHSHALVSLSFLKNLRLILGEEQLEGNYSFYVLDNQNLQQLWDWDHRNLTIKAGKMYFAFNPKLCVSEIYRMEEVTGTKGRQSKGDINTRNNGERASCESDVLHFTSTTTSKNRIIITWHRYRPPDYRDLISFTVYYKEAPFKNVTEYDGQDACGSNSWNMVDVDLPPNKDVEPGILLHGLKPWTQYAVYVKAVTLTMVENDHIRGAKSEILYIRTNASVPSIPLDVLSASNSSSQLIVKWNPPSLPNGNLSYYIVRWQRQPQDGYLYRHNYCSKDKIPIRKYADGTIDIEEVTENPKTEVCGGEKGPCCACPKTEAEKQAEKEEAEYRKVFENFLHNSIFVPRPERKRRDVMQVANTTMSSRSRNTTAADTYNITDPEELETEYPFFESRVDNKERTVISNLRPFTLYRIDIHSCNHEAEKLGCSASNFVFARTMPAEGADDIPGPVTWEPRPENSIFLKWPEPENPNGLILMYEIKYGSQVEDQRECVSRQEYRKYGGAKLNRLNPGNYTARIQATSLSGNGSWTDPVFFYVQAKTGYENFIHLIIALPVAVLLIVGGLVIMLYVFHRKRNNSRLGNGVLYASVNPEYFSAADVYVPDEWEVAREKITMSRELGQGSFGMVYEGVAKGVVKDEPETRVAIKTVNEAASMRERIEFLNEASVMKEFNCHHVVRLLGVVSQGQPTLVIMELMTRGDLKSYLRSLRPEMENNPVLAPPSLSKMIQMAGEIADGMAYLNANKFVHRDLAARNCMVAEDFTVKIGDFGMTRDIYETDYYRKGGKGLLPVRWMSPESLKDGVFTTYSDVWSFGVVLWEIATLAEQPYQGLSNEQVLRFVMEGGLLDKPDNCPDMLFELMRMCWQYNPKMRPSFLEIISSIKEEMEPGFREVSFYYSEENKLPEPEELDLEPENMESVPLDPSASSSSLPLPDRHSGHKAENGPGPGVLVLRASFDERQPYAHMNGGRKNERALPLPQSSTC

Sequence of IGF-1R on MCF-7 cells (MCF-7S8, MCF7) (human), P08069 (P08069 31-1367): as the sequence (P08069 31-1367 limits assumed) above

In assay [1], SFYSCLESLVNGGAERSDGQWEGCR (modifications not checked) [F113] gave a Cell of 1000 nM. In assay [2], this molecule came in with an IC50, IGF-1 (10 nM)-induced proliferation of SW480 cells, exp. 13262-015 greater than 10 µM and an IC50, IGF-1 (10 nM)-induced proliferation of SW480 cells, exp. 13262-016 greater than 10 µM.
